Measured values published in patent US20250243261A1 (CZ BIOHUB SF, published 2025).
Where two headings read alike, the source gives them in different places.

Assays:
[1] = molecular target: T1, Ebola GP ectodomain (Mayinga, Zaire, 1976) with the mucin-like domain deleted (Zaire ebolavirus (Mayinga, 1976), UniProt Q05320 33-650)
[2] = molecular target: T1, Ebola GP ectodomain (Mayinga, Zaire, …); remark: listed apart in the source
[3] = molecular target: T1, Ebola GP ectodomain (Mayinga, Zaire, …); assay: BLI, Fab
[4] = molecular target: T1, Ebola GP ectodomain (Mayinga, Zaire, …); assay: BLI, IgG
[5] = molecular target: T2, full-length Ebola GP on pseudotyped lentivirus (Zaire ebolavirus, UniProt Q05320 33-676); assay: cell-based or functional assay
T2 sequence: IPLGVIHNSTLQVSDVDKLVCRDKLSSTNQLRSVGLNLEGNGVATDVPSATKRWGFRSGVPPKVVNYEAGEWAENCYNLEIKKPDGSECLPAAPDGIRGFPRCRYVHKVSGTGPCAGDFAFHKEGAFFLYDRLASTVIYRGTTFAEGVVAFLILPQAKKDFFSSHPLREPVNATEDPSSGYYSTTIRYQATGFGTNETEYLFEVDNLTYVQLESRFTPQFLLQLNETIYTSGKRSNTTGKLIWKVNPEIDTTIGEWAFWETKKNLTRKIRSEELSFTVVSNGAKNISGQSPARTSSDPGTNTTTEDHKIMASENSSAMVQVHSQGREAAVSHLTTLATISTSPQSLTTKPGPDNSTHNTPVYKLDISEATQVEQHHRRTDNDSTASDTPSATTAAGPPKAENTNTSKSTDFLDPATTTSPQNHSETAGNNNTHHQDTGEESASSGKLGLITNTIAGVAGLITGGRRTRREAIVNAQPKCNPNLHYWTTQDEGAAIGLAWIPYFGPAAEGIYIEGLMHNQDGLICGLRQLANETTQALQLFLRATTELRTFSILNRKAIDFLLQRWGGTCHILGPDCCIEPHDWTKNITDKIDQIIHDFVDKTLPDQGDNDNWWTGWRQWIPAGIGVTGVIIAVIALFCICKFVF

[6] = molecular target: T1, Ebola GP ectodomain (Mayinga, Zaire, …); remark: listed apart in the source
[7] = molecular target: T1, Ebola GP ectodomain (Mayinga, Zaire, …); remark: listed apart in the source
[8] = molecular target: T1, Ebola GP ectodomain (Mayinga, Zaire, …); assay: BLI, Fab; remark: listed apart in the source

B1: mAb114 UCA VH P60A-G61D / VL V43A IgG (antibody, V domains shown)
VH: EVQLVESGGGLVQPGGSLRLSCAASGFTFSSYDMHWVRQATGKGLEWVSAIGTAGDTYYADSVKGRFTISRENAKNSLYLQMNSLRAGDTAVYYCVRSDRGVAGLFDSWGQGTLVTVSS
VL: DIQMTQSPSSLSASVGDRVTITCRASQGISNYLAWYQQKPGKAPKLLIYAASTLQSGVPSRFSGSGSGTDFTLTISSLQPEDVATYYCQKYNSAPLTFGGGTKVEIK
[1]
  fold improvement in Kd over wildtype: 90 fold
[2]
  Kd: 5 nM

B2: mAb114 UCA WT Fab (Fab, V domains shown)
VH: EVQLVESGGGLVQPGGSLRLSCAASGFTFSSYDMHWVRQATGKGLEWVSAIGTAGDTYYPGSVKGRFTISRENAKNSLYLQMNSLRAGDTAVYYCVRSDRGVAGLFDSWGQGTLVTVSS
VL: DIQMTQSPSSLSASVGDRVTITCRASQGISNYLAWYQQKPGKVPKLLIYAASTLQSGVPSRFSGSGSGTDFTLTISSLQPEDVATYYCQKYNSAPLTFGGGTKVEIK
[3]
  Kd: 75000 nM

B3: mAb114 UCA VH T41P-P60A-G61D-E72D-G88E-V96A / VL V43A IgG (antibody, V domains shown)
VH: EVQLVESGGGLVQPGGSLRLSCAASGFTFSSYDMHWVRQAPGKGLEWVSAIGTAGDTYYADSVKGRFTISRDNAKNSLYLQMNSLRAEDTAVYYCARSDRGVAGLFDSWGQGTLVTVSS
VL: DIQMTQSPSSLSASVGDRVTITCRASQGISNYLAWYQQKPGKAPKLLIYAASTLQSGVPSRFSGSGSGTDFTLTISSLQPEDVATYYCQKYNSAPLTFGGGTKVEIK
[2]
  Kd: 15 nM

B4: mAb114 UCA WT IgG (antibody, V domains shown)
VH: EVQLVESGGGLVQPGGSLRLSCAASGFTFSSYDMHWVRQATGKGLEWVSAIGTAGDTYYPGSVKGRFTISRENAKNSLYLQMNSLRAGDTAVYYCVRSDRGVAGLFDSWGQGTLVTVSS
VL: DIQMTQSPSSLSASVGDRVTITCRASQGISNYLAWYQQKPGKVPKLLIYAASTLQSGVPSRFSGSGSGTDFTLTISSLQPEDVATYYCQKYNSAPLTFGGGTKVEIK
[4]
  Kd: 400 nM

B5: mAb114 VH D42G-A68T-S79Y / VL V43A IgG (antibody, V domains shown)
VH: EVQLVESGGGLIQPGGSLRLSCAASGFALRMYDMHWVRQTIGKRLEWVSAVGPSGDTYYADSVKGRFTVSRENAKNSLYLQMNSLTAGDTAIYYCVRSDRGVAGLFDSWGQGILVTVSS
VL: DIQMTQSPSSLSASVGDRITITCRASQAFDNYVAWYQQRPGKAPKLLISAASALHAGVPSRFSGSGSGTHFTLTISSLQPEDVATYYCQNYNSAPLTFGGGTKVEIK
[1]
  Kd: < 0.001 nM
[5]
  Ebola GP pseudotyped lentivirus IC50: 0.96 nM

B6: mAb114 WT IgG (antibody, V domains shown)
VH: EVQLVESGGGLIQPGGSLRLSCAASGFALRMYDMHWVRQTIDKRLEWVSAVGPSGDTYYADSVKGRFAVSRENAKNSLSLQMNSLTAGDTAIYYCVRSDRGVAGLFDSWGQGILVTVSS
VL: DIQMTQSPSSLSASVGDRITITCRASQAFDNYVAWYQQRPGKVPKLLISAASALHAGVPSRFSGSGSGTHFTLTISSLQPEDVATYYCQNYNSAPLTFGGGTKVEIK
[1]
  Kd: < 0.001 nM

B7: mAb114 VH D42G-A68T-S79Y / VL V43A Fab (Fab, V domains shown)
VH: EVQLVESGGGLIQPGGSLRLSCAASGFALRMYDMHWVRQTIGKRLEWVSAVGPSGDTYYADSVKGRFTVSRENAKNSLYLQMNSLTAGDTAIYYCVRSDRGVAGLFDSWGQGILVTVSS
VL: DIQMTQSPSSLSASVGDRITITCRASQAFDNYVAWYQQRPGKAPKLLISAASALHAGVPSRFSGSGSGTHFTLTISSLQPEDVATYYCQNYNSAPLTFGGGTKVEIK
[6]
  Kd: 0.06 nM
[7]
  fold improvement in Kd vs wildtype: 3 fold

B8: mAb114 WT Fab (Fab, V domains shown)
VH: EVQLVESGGGLIQPGGSLRLSCAASGFALRMYDMHWVRQTIDKRLEWVSAVGPSGDTYYADSVKGRFAVSRENAKNSLSLQMNSLTAGDTAIYYCVRSDRGVAGLFDSWGQGILVTVSS
VL: DIQMTQSPSSLSASVGDRITITCRASQAFDNYVAWYQQRPGKVPKLLISAASALHAGVPSRFSGSGSGTHFTLTISSLQPEDVATYYCQNYNSAPLTFGGGTKVEIK
[8]
  Kd: 0.17 nM
